Measured values: paper PMC8004131 (Viruses, 2021)

How the values were obtained:
[1] = target: soluble trimeric Cedar virus fusion glycoprotein (CedV sF) (Cedar virus); assay: negative-stain electron microscopy
[2] = target: Mojiang virus fusion glycoprotein (MojV F), full length, S-tagged (Mojiang virus); assay: cross-linking
[3] = target: soluble tetrameric Ghana virus attachment glycoprotein (GhV sG) (Ghana virus); assay: negative-stain electron microscopy
[4] = target: Mojiang virus attachment glycoprotein (MojV G), full length, S-tagged (Mojiang virus); assay: cross-linking
[5] = target: soluble trimeric Mojiang virus fusion glycoprotein (MojV sF) (Mojiang virus); assay: negative-stain electron microscopy
[6] = target: soluble tetrameric Mojiang virus attachment glycoprotein (MojV sG) (Mojiang virus); assay: negative-stain electron microscopy
[7] = target: the molecule itself; assay: cross-linking

soluble trimeric Cedar virus fusion glycoprotein (CedV sF) (domain or fragment)
stoichiometry N [1]: 3

Mojiang virus fusion glycoprotein (MojV F), full length, S-tagged (natural protein)
stoichiometry N [2]: 3

soluble tetrameric Ghana virus attachment glycoprotein (GhV sG) (domain or fragment)
stoichiometry N [3]: 4

Mojiang virus attachment glycoprotein (MojV G), full length, S-tagged (natural protein)
stoichiometry N [4]: 4

soluble trimeric Mojiang virus fusion glycoprotein (MojV sF) (domain or fragment)
stoichiometry N [5]: 3

soluble tetrameric Mojiang virus attachment glycoprotein (MojV sG) (domain or fragment)
stoichiometry N [6]: 4

B1: Hendra virus attachment glycoprotein (HeV G), full length, S-tagged (natural protein)
chain: MMADSKLVSLNNNLSGKIKDQGKVIKNYYGTMDIKKINDGLLDSKILGAFNTVIALLGSIIIIVMNIMIIQNYTRTTDNQALIKESLQSVQQQIKALTDKIGTEIGPKVSLIDTSSTITIPANIGLLGSKISQSTSSINENVNDKCKFTLPPLKIHECNISCPNPLPFREYRPISQGVSDLVGLPNQICLQKTTSTILKPRLISYTLPINTREGVCITDPLLAVDNGFFAYSHLEKIGSCTRGIAKQRIIGVGEVLDRGDKVPSMFMTNVWTPPNPSTIHHCSSTYHEDFYYTLCAVSHVGDPILNSTSWTESLSLIRLAVRPKSDSGDYNQKYIAITKVERGKYDKVMPYGPSGIKQGDTLYFPAVGFLPRTEFQYNDSNCPIIHCKYSKAENCRLSMGVNSKSHYILRSGLLKYNLSLGGDIILQFIEIADNRLTIGSPSKIYNSLGQPVFYQASYSWDTMIKLGDVDTVDPLRVQWRNNSVISRPGQSQCPRFNVCPEVCWEGTYNDAFLIDRLNWVSAGVYLNSNQTAENPVFAVFKDNEILYQVPLAEDDTNAQKTITDCFLLENVIWCISLVEIYDTGDSVIRPKLFAVKIPAQCSES
stoichiometry N [7]: 4

B2: Cedar virus attachment glycoprotein (CedV G), full length, S-tagged (natural protein)
chain: MLSQLQKNYLDNSNQQGDKMNNPDKKLSVNFNPLELDKGQKDLNKSYYVKNKNYNVSNLLNESLHDIKFCIYCIFSLLIIITIINIITISIVITRLKVHEENNGMESPNLQSIQDSLSSLTNMINTEITPRIGILVTATSVTLSSSINYVGTKTNQLVNELKDYITKSCGFKVPELKLHECNISCADPKISKSAMYSTNAYAELAGPPKIFCKSVSKDPDFRLKQIDYVIPVQQDRSICMNNPLLDISDGFFTYIHYEGINSCKKSDSFKVLLSHGEIVDRGDYRPSLYLLSSHYHPYSMQVINCVPVTCNQSSFVFCHISNNTKTLDNSDYSSDEYYITYFNGIDRPKTKKIPINNMTADNRYIHFTFSGGGGVCLGEEFIIPVTTVINTDVFTHDYCESFNCSVQTGKSLKEICSESLRSPTNSSRYNLNGIMIISQNNMTDFKIQLNGITYNKLSFGSPGRLSKTLGQVLYYQSSMSWDTYLKAGFVEKWKPFTPNWMNNTVISRPNQGNCPRYHKCPEICYGGTYNDIAPLDLGKDMYVSVILDSDQLAENPEITVFNSTTILYKERVSKDELNTRSTTTSCFLFLDEPWCISVLETNRFNGKSIRPEIYSYKIPKYC
notes: source: BSR-T7/5, transfected, on cells; precipitated from lysate with S protein agarose; not shown: S-tag, N-terminal, kept
stoichiometry N [7]: 4
